Results on 4 molecules are retold here after patent publication US20250026846A1 (JCR PHARMACEUTICALS, published 2025).

A word on the Kd: it is the free concentration of one partner at which half of the binding sites on the other are occupied at equilibrium, for simple one-to-one binding. As usually defined, the koff is the first-order rate constant of dissociation. The kon is a measure of how fast the partners come together.

Holding throughout (experiment): BLI (Octet RED96), His-tagged TfR ECD on Ni-NTA sensor
In general terms: BLI is a label-free optical method that tracks binding on a fibre tip over time.

Test [1] concerns the target T1, recombinant human TfR (r human TfR: Sino Biological Inc.), hTfR extracellular region with a histidine tag at … (human, UniProt P02786 89-760).
T1 construct: Bought from Sino Biological; also called r human TfR-ECD (Histag); recombinant hTfR; not shown: histidine tag at the N-terminus
Here is the method: (§1) Each of the sample solutions prepared above by 2-fold dilution steps was added, 200 μL/well, to a 96-well plate, black (Greiner Bio-One Inc.). Each of the r human TfR-ECD (Histag) solution and the r monkey TfR-ECD (Histag) solutions prepared above was added, 200 μL/well, to predetermined wells. To respective wells for baseline, dissociation and washing were added HBS-P+, 200 μL/well. To wells for regeneration were added 10 mM Glycine-HCl (pH 1.7), 200 μL/well. To wells for activation was added 0.5 mM NiCl₂ solution, 200 μL/well. The plate and biosensor (Biosensor/Ni-NTA: ForteBio Inc., a division of Pall Corporation) were set in the prescribed positions of Octet RED96.
(§2) The measurement was performed at 25 to 30° C.
The affinity of humanized anti-hTfR antibody No. 3 obtained in Example 13 and humanized anti-hTfR antibody No. 3N obtained in Example 17 to […] was measured by the method described in Example 7. […] Besides, the measurement indicating the affinity of humanized anti-hTfR antibody No. 3 to human TfR differed from that shown in Table 6, but is an experimental error.

For test [2], the target named is T2, recombinant monkey TfR (r monkey TfR: Sino Biological Inc.), crab-eating monkey TfR extracellular region with … (crab-eating monkey (Macaca fascicularis)).
T2 construct: Bought from Sino Biological; also called r monkey TfR-ECD (Histag); not shown: histidine tag at the N-terminus
T2 chain: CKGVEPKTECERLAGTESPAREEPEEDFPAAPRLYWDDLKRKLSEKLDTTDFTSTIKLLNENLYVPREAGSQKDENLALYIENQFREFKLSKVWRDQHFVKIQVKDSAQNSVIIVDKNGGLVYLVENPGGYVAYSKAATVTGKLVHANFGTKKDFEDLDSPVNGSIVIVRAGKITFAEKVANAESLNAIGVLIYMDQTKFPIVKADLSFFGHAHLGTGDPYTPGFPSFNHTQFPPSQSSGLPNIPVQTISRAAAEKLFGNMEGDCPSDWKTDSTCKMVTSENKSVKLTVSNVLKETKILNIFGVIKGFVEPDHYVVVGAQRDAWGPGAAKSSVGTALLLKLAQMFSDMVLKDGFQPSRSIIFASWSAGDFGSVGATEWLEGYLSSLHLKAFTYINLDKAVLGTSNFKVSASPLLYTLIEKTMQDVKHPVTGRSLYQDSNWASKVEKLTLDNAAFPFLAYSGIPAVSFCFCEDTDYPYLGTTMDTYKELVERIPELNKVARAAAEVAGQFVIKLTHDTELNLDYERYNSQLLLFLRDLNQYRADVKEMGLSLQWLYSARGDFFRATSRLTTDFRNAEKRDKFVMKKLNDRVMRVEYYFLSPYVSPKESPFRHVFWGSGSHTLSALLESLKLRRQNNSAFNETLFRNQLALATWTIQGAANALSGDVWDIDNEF
The method, then:
as §1, §2
The affinity of humanized anti-hTfR antibody No. 3 obtained in Example 13 and humanized anti-hTfR antibody No. 3N obtained in Example 17 to human TfR and monkey TfR was measured by the method described in Example 7. […] Besides, the measurement indicating the affinity of humanized anti-hTfR antibody No. 3 to monkey TfR differed from that shown in Table 7, but is an experimental error.

For test [3], the target named is T2, recombinant monkey TfR (r monkey TfR: …). Here is the method: as §1, §2
(§3) The affinity of the humanized anti-hTfR antibodies obtained in Example 13 to human and monkey TfRs was measured by the method described in Example 7.

Test [4] addresses T1, recombinant human TfR (r human TfR: …). Here is the method: as §1, §2, §3
The source holds these as a separate data set.

Where two headings read alike, the source gives them in different places.

B1: humanized anti-hTfR antibody No. 3 (antibody, human IgG1, kappa)
light: DIVMTQTPLSLSVTPGQPASISCRSSQSLVHSNGNTYLHWYLQKPGQSPQLLIYKVSNRFSGVPDRFSGSGSGTDFTLKISRVEAEDVGVYYCSQSTHVPWTFGQGTKVEIKRTVAAPSVFIFPPSDEQLKSGTASVVCLLNNFYPREAKVQWKVDNALQSGNSQESVTEQDSKDSTYSLSSTLTLSKADYEKHKVYACEVTHQGLSSPVTKSFNRGEC
heavy: not shown
notes: IgG1; Expressed from pE-hygr(LC3) and pE-neo(HC3) in CHO cells; also called Humanized anti-hTfR antibody 3
On to B1, for which the Kd is less than 0.001 nM in test [1], 1.32 nM in test [2], 1.12 nM in test [3] and less than 0.001 nM in test [4]. For the same molecule, the off-rate constant (koff) in test [1] was less than 1e-07 s⁻¹; in test [2], 0.000806 s⁻¹; in test [3], 0.000676 s⁻¹; in test [4], less than 1e-07 s⁻¹. For the same molecule, the on-rate constant (kon) in test [1] was found to be 847000 M⁻¹ s⁻¹; in test [2], 609000 M⁻¹ s⁻¹; in test [3], 603000 M⁻¹ s⁻¹; in test [4], 1.19e+06 M⁻¹ s⁻¹.

B2: humanized anti-hTfR antibody No. 3-2 (antibody, human IgG1, kappa)
light: DIVMTQSPLSLPVTPGEPASISCRSSQSLVHSNGNTYLHWYLQKPGQSPQLLIYKVSNRFSGVPDRFSGSGSGTDFTLKISRVEAEDVGVYYCSQSTHVPWTFGQGTKVEIKRTVAAPSVFIFPPSDEQLKSGTASVVCLLNNFYPREAKVQWKVDNALQSGNSQESVTEQDSKDSTYSLSSTLTLSKADYEKHKVYACEVTHQGLSSPVTKSFNRGEC
heavy: not shown
notes: IgG1
B2: in test [3], the Kd was 1.77 nM, the off-rate constant (koff) stood at 0.000876 s⁻¹ and the on-rate (kon) was 495000 M⁻¹ s⁻¹. For the same molecule, in test [4], the Kd was 0.0239 nM, the koff turned out to be 1.45e-05 s⁻¹ and the kon worked out at 606000 M⁻¹ s⁻¹.

B3: humanized anti-hTfR antibody No. 3-3 (antibody, human IgG1, kappa)
light: DIVMTQTPLSLPVTPGEPASISCRSSQSLVHSNGNTYLHWYLQKPGQSPQLLIYKVSNRFSGVPDRFSGSGSGTDFTLKISRVEAEDVGVYYCSQSTHVPWTFGQGTRLEIKRTVAAPSVFIFPPSDEQLKSGTASVVCLLNNFYPREAKVQWKVDNALQSGNSQESVTEQDSKDSTYSLSSTLTLSKADYEKHKVYACEVTHQGLSSPVTKSFNRGEC
heavy: not shown
notes: IgG1
In the case of B3, in test [3], the dissociation constant (Kd) stood at 1.91 nM, the off-rate constant (koff) worked out at 0.000932 s⁻¹ and the on-rate constant (kon) stood at 488000 M⁻¹ s⁻¹. In addition, in test [4], the dissociation constant (Kd) turned out to be 0.0209 nM, the koff stood at 1.25e-05 s⁻¹ and the on-rate (kon) came out at 600000 M⁻¹ s⁻¹.

B4: humanized anti-hTfR antibody No. 3-4 (antibody, human IgG1, kappa, V domains shown)
VH: EVQLVQSGAEVKKPGESLKISCKGSGYSFTNYWLGWVRQMPGKGLEWMGDIYPGGDYPTYSEKFKVQVTISADKSISTAYLQWSSLKASDTAMYYCARSGNYDEVAYWGQGTLVTVSS
VL: DIVMTQTPLSLSVTPGQPASISCRSSQSLVHSNGNTYLHWYLQKPGQSPQLLIYKVSNRFSGVPDRFSGSGSGTDFTLKISRVEAEDVGVFFCSQSTHVPWTFGQGTKVEIKR
notes: IgG1
Regarding B4, in test [3], the Kd came out at 0.26 nM, the off-rate constant (koff) was 0.000135 s⁻¹ and the on-rate constant (kon) was 519000 M⁻¹ s⁻¹. Also, in test [4], the dissociation constant (Kd) is less than 0.001 nM, the off-rate constant (koff) was less than 1e-07 s⁻¹ and the kon was 1.01e+06 M⁻¹ s⁻¹.
